Reference: patent US7078382B1, “Modulation of eNOS activity and therapeutic uses thereof” (Genentech, Inc., priority 1999, dated 2006)

B1: LK-VRB-4s: VEGF (1-109) variant, F17I/M18E/Y21F/Q22E/Y25I (protein)
chain: APMAEGGGQNHHEVVKIEDVFERSICHPIETLVDIFQEYPDEIEYIFKPSCVPLMRCGGCCNDEGLECVPTEESNITMQIMRIKPHQGQHIGEMSFLQHNKCECRPKKD
B2: LK-VRB-3s: VEGF (1-109) variant, F17I/M18E/Y21F/Q22K/Y25S (protein)
chain: APMAEGGGQNHHEVVKIEDVFKRSSCHPIETLVDIFQEYPDEIEYIFKPSCVPLMRCGGCCNDEGLECVPTEESNITMQIMRIKPHQGQHIGEMSFLQHNKCECRPKKD
B3: LK-VRB-12s: VEGF (1-109) variant, M18E/Q22R/D63S/G65M/L66R (protein)
chain: APMAEGGGQNHHEVVKFEDVYRRSYCHPIETLVDIFQEYPDEIEYIFKPSCVPLMRCGGCCNSEMRECVPTEESNITMQIMRIKPHQGQHIGEMSFLQHNKCECRPKKD
B4: LK-VRB-14s: VEGF (1-109) variant, Y21L/Q22R/D63S/G65M/L66R (protein)
chain: APMAEGGGQNHHEVVKFMDVLRRSYCHPIETLVDIFQEYPDEIEYIFKPSCVPLMRCGGCCNSEMRECVPTEESNITMQIMRIKPHQGQHIGEMSFLQHNKCECRPKKD
B5: LK-VRB-11s: VEGF (1-109) variant, M18E/Y21L/D63S/G65M/L66R (protein)
chain: APMAEGGGQNHHEVVKFEDVLQRSYCHPIETLVDIFQEYPDEIEYIFKPSCVPLMRCGGCCNSEMRECVPTEESNITMQIMRIKPHQGQHIGEMSFLQHNKCECRPKKD
B6: LK-VRB-7s*: VEGF (1-109) variant, M18E/D63S/G65M/L66R (protein)
chain: APMAEGGGQNHHEVVKFEDVYQRSYCHPIETLVDIFQEYPDEIEYIFKPSCVPLMRCGGCCNSEMRECVPTEESNITMQIMRIKPHQGQHIGEMSFLQHNKCECRPKKD
B7: LK-VRB-10s: VEGF (1-109) variant, Y25S/D63S/G65M/L66R (protein)
chain: APMAEGGGQNHHEVVKFMDVYQRSSCHPIETLVDIFQEYPDEIEYIFKPSCVPLMRCGGCCNSEMRECVPTEESNITMQIMRIKPHQGQHIGEMSFLQHNKCECRPKKD
B8: LK-VRB-8s*: VEGF (1-109) variant, Y2IL/D63S/G65M/LG6R as printed (protein)
chain: APMAEGGGQNHHEVVKFMDVLQRSYCHPIETLVDIFQEYPDEIEYIFKPSCVPLMRCGGCCNSEMRECVPTEESNITMQIMRIKPHQGQHIGEMSFLQHNKCECRPKKD
B9: LK-VRB-9s: VEGF (1-109) variant, Q22R/D63S/G65M/L66R (protein)
chain: APMAEGGGQNHHEVVKFMDVYRRSYCHPIETLVDIFQEYPDEIEYIFKPSCVPLMRCGGCCNSEMRECVPTEESNITMQIMRIKPHQGQHIGEMSFLQHNKCECRPKKD
B10: LK-VRB-15s: VEGF (1-109) variant, Y21L/Y25S/D63S/G65M/L66R (protein)
chain: APMAEGGGQNHHEVVKFMDVLQRSSCHPIETLVDIFQEYPDEIEYIFKPSCVPLMRCGGCCNSEMRECVPTEESNITMQIMRIKPHQGQHIGEMSFLQHNKCECRPKKD
B11: LK-VRB-23s: VEGF (1-109) variant, L66R/M185/Y21L/Q22R/Y25S as printed (protein)
chain: APMAEGGGQNHHEVVKFEDVLRRSSCHPIETLVDIFQEYPDEIEYIFKPSCVPLMRCGGCCNDEGRECVPTEESNITMQIMRIKPHQGQHIGEMSFLQHNKCECRPKKD
B12: LK-VRB-19s: VEGF (1-109) variant, M18E/Q22R/Y25S/D63S/G65M/L66R as printed (same as 18s) (protein)
chain: APMAEGGGQNHHEVVKFEDVYRRSSCHPIETLVDIFQEYPDEIEYIFKPSCVPLMRCGGCCNSEMRECVPTEESNITMQIMRIKPHQGQHIGEMSFLQHNKCECRPKKD
B13: LK-VRB-20s: VEGF (1-109) variant, Y21L/Q22R/Y25S/D63S/G65M/L66R (protein)
chain: APMAEGGGQNHHEVVKFMDVLRRSSCHPIETLVDIFQEYPDEIEYIFKPSCVPLMRCGGCCNSEMRECVPTEESNITMQIMRIKPHQGQHIGEMSFLQHNKCECRPKKD
B14: LK-VRB-17s: VEGF (1-109) variant, M18E/Y21L/Q22R/D63S/G65M/L66R (protein)
chain: APMAEGGGQNHHEVVKFEDVLRRSYCHPIETLVDIFQEYPDEIEYIFKPSCVPLMRCGGCCNSEMRECVPTEESNITMQIMRIKPHQGQHIGEMSFLQHNKCECRPKKD
B15: LK-VRB-16s: VEGF (1-109) variant, Q22R/Y25S/D63S/G65M/L66R (protein)
chain: APMAEGGGQNHHEVVKFMDVYRRSSCHPIETLVDIFQEYPDEIEYIFKPSCVPLMRCGGCCNSEMRECVPTEESNITMQIMRIKPHQGQHIGEMSFLQHNKCECRPKKD
B16: LK-VRB-22s: VEGF (1-109) variant, GG5M/M18E/Y21L/Q22R/Y25S as printed (protein)
chain: APMAEGGGQNHHEVVKFEDVLRRSSCHPIETLVDIFQEYPDEIEYIFKPSCVPLMRCGGCCNDEMLECVPTEESNITMQIMRIKPHQGQHIGEMSFLQHNKCECRPKKD
B17: LK-VRB-21s: VEGF (1-109) variant, D63S/M18E/Y21L/Q22R/Y25S (protein)
chain: APMAEGGGQNHHEVVKFEDVLRRSSCHPIETLVDIFQEYPDEIEYIFKPSCVPLMRCGGCCNSEGLECVPTEESNITMQIMRIKPHQGQHIGEMSFLQHNKCECRPKKD
B18: LK-VRB-13s: VEGF (1-109) variant, M18E/Y25S/D63S/G65M/L66R (protein)
chain: APMAEGGGQNHHEVVKFEDVYQRSSCHPIETLVDIFQEYPDEIEYIFKPSCVPLMRCGGCCNSEMRECVPTEESNITMQIMRIKPHQGQHIGEMSFLQHNKCECRPKKD

What was measured:
KDR receptor = KDR receptor (Homo sapiens, UniProt P35968); test: KDR receptor binding ELISA (inhibition of biotinylated native VEGF (8-109) binding); settings: second figure of the cell, ratio to native VEGF (8-109)
Protocol: Receptor binding assays were performed in 96-well immunoplates (Maxisorp, Nunc-Immunoplate, Nalge Nunc International, Rochester, N.Y.). Each well was coated with 100 μl of a solution containing 8 μg/ml of a monoclonal antibody to KDR known as MAKD5 (Genentech, South San Francisco, Calif.) in 50 mM carbonate buffer at pH 9.6 and incubated at 4° C. overnight. The supernatant was discarded, the wells were washed three times in washing buffer (0.05% Tween 20 in PBS), and the plate was blocked (150 μl per well) with block buffer (0.5% BSA, 0.01% thimerosal in PBS) at room temperature for one hour. The supernatant was discarded, and the wells were washed.
Aliquots of this mixture (100 μl) were added to the precoated microtiter wells and the plate was incubated for 1 hour at room temperature. […] The wells were then incubated with 3, 3′, 5,5′-tetramethyl benzidine (0.2 gram/liter; Kirkegaard & Perry Laboratories, Gaithersburg, Md.) for about 10 minutes at room temperature. Absorbance was read at 450 nm on a Vmax plate reader (Molecular Devices, Menlo Park, Calif.).
(§1) Titration curves were fit with a four-parameter nonlinear regression curve-fitting program (KaleidaGraph, Synergy Software, Reading, Pa.).

Flt-1 receptor = Flt-1 receptor binding ELISA (inhibition of biotinylated native VEGF binding to Flt-IgG); settings: second figure of the cell, ratio to native VEGF (8-109)
Protocol: Receptor binding assays were performed in 96-well immunoplates (Maxisorp, Nunc-Immunoplate, Nalge Nunc International, Rochester, N.Y.). Each well was coated with 100 μl of a solution containing 2 μg/ml of rabbit F(ab′)2 to human IgG Fc (Jackson ImmunoResearch, West Grove, Pa.) in 50 mM carbonate buffer at pH 9.6 and incubated at 4° C. overnight. The supernatant was then discarded, the wells were washed three times in washing buffer (0.05% Tween 20 in PBS), and the plate was blocked (150 μl per well) with block buffer (0.5% BSA, 0.01% thimerosal in PBS) at room temperature for one hour. The supernatant was discarded, and the wells were washed.
The wells were filled with 100 μl of a solution containing Flt-IgG (a chimeric Flt-human Fc molecule) at 50 ng/ml in assay buffer (0.5% BSA, 0.05% Tween 20 in PBS). The wells were incubated at room temperature for 1 hour and then washed three times in wash buffer (0.05% Tween 20 in PBS).
Aliquots of the mixture (100 μl) were added to the precoated microtiter wells and the plate was incubated for 2 hours at room temperature. […] The wells were then incubated with 3, 3′, 5,5′-tetramethyl benzidine (0.2 g/liter, Kirkegaard & Perry Laboratories, Gaithersburg, Md.) for about 10 minutes at room temperature. Absorbance was read at 450 nm on a Vmax plate reader (Molecular Devices, Menlo Park, Calif.).
as §1

Chain of KDR receptor (P35968 20-327 limits assumed): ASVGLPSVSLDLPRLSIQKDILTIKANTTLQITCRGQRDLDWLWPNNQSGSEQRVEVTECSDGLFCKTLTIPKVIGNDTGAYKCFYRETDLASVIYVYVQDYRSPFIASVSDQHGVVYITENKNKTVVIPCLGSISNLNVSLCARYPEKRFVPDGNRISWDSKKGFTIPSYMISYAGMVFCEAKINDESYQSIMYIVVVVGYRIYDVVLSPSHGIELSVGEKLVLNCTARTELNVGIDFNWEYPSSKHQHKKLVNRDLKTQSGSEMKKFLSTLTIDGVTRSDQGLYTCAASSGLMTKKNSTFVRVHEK
Chain of Flt-1 receptor (P17948 27-327 limits assumed): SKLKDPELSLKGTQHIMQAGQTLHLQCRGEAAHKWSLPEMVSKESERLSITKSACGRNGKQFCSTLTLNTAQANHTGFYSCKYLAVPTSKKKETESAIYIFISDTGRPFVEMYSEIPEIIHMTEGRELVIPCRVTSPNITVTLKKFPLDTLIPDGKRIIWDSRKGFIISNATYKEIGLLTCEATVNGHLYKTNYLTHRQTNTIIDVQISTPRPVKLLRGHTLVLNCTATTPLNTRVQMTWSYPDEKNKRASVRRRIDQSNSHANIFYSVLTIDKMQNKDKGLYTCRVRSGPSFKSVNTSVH

Molecule | Relative Binding Affinity KDR Receptor (KDR receptor) | Relative Binding Affinity FLT-1 Receptor (Flt-1 receptor)
B1 | 1 nM/1 | –
B2 | 1 nM/1 | –
B3 | 0.4 nM/0.4 | />5600
B4 | 0.5 nM/0.5 | />2900
B5 | 2 nM/2 | />14000
B6 | 1 nM/1 | />15000
B7 | 0.5 nM/0.5 | />2400
B8 | 0.5 nM/0.5 | />21000
B9 | 0.5 nM/0.5 | /300
B10 | 2 nM/2 | />21000
B11 | 11 nM/11 | />8500
B12 | 7 nM/7 | />35000
B13 | 2 nM/2 | />10000
B14 | 3 nM/3 | />1900
B15 | 0.6 nM/0.6 | />1400
B16 | 4 nM/4 | />30
B17 | 3 nM/3 | />5600
B18 | 14 nM/14 | />14000
